Assay results published in publication PMC3701909, “Direct single molecule measurement of TCR triggering by agonist pMHC in living primary T cells” (eLife, 2013).
One block for each compound: values may come before it.

How the values were obtained:
[1] = molecular target: phosphorylated ITAM domains on the cytoplasmic side of TCR engaged with pMHC (TCR complex, 10 ITAM domains) (mouse (endogenous in primary T cells)); assay: two-color single molecule fluorescence tracking (TIRF); ZAP70-EGFP intensity integrated over a 315 nm square centred on each pMHC:TCR complex in live T cells; change-point analysis; intensity calibrated with single ZAP70-EGFP molecules of the same cell; dwell times not corrected for photobleaching
[2] = molecular target: MCC agonist pMHC: MHC class II I-E^k loaded with MCC(C) peptide labelled with Atto647N (not stated | moth) (UniProt P04230); assay: two-color single molecule fluorescence tracking (TIRF); agonist pMHC (MCC-Atto647N) on a supported lipid bilayer; live T cells expressing ZAP70-EGFP; 1 frame/s, 500 ms integration; pair pMHC and TCR
[3] = molecular target: MCC agonist pMHC: MHC class II I-E^k loaded with MCC(C) peptide labelled with Atto488 (not stated | moth) (UniProt P04230); assay: single molecule fluorescence tracking (TIRF); pMHC (Atto488 on the peptide) tethered by His tags to a Ni-NTA supported lipid bilayer with ICAM1-TagBFP; live primary T cell blasts added; 500 ms exposure, 1-10 s time lapse; dwell time of the slow-moving pMHC corrected for photobleaching; 37°C, imaging buffer; also at 100 molecules/µm^2 and with Latrunculin A
AND TCR = assay: single molecule tracking of agonist pMHC:TCR dwell times in hybrid live T cell-supported membrane junctions; type: binding, mouse; settings: AND T cells, 37 °C, compared with same-day control
Source text: (§1) We probe agonist pMHC:TCR complex dynamics in hybrid live cell—supported membrane junctions([Grakoui et al., 1999]) (Figure 1A). The supported membrane is functionalized with MHC (IE^k) and intercellular adhesion molecule-1 fusion with a blue fluorescent protein (ICAM1-TagBFP), both linked to the membrane via C-terminal poly-His tag binding to Ni-chelating lipids ([Nye and Groves, 2008]). The MHC is loaded with peptide (moth cytochrome c [MCC] agonist or null), which is covalently coupled in a 1:1 stoichiometry (verified by HPLC) to the photostable fluorophores Atto647N or Atto488 using maleimide-thiol chemistry. […]
(§2) Since the slow-moving pMHC can be clearly resolved from the fast moving component, the lifetime of molecules in this bound state is directly observable. […] Unbinding and photobleaching are indistinguishable in fluorescence methods such as this. […]
(§3) TIRF experiments were performed on an inverted microscope (Nikon Eclipse Ti; Technical Instruments, Burlingame, CA) using a custom-built laser launch with 488 nm (Sapphire HP; Coherent Inc., Santa Clara, CA) and 640 nm (Cube; Coherent Inc.) diode lasers, as described previously ([Smith et al., 2011]). Laser powers measured at the sample were 0.8 mW (640 nm) and 0.5 mW (488 nm) for 500 ms exposures and 4.4 mW (640 nm) for 17.5 ms exposures. […]

5c.c7 TCR = assay: as above; type: binding, mouse; settings: 5c.c7 T cells, 37 °C, compared with same-day control
Source text: as §1, §2, §3

ZAP70 molecules (EGFP-tagged and endogenous) per feature (ZAP70 molecules per feature) [1]: 6 | molecular binding dwell time [1]: 12 to 107 s | stoichiometry N (ZAP70-EGFP per feature) [1]: 2.9
Compound: enhanced green fluorescent protein fused to CD3 zeta-chain-associated protein of 70 kDa (Zap70-EGFP) (from UniProt P43404 1-618) (enzyme)

stoichiometry N [2]: 1 | mean dwell time 〈τoff〉 [3]: 53.8 s
Compound: AND TCR

Compound: C/C1=C/C(=O)O[C@@H]2C[C@@H](CC[C@H](C)/C=C\C=C\CC1)O[C@@](O)([C@@H]1CSC(=O)N1)C2 [Latrunculin A]
effect of cytoskeleton disruption on ⟨τoff⟩ of agonist pMHC (AND TCR): moderately increases | effect of cytoskeleton disruption on agonist pMHC binding kinetics (5c.c7 TCR): no significant effect
